Source: patent US20240317859A1 (FOUNDATION FOR BIOMEDICAL RESEARCH AND INNOVATION AT KOBE, published 2024)
Substitutions are numbered along the chain they refer to. Names may count otherwise.

T1: substituted human PD-1, domain #7 replaced with the corresponding amino acid sequence of mouse PD-1 (human; mouse, UniProt Q15116 25-288)
T1 construct: Human limits of domain #7 (38-48) are printed; also called PD-1 if domain #7 is replaced
T1 chain: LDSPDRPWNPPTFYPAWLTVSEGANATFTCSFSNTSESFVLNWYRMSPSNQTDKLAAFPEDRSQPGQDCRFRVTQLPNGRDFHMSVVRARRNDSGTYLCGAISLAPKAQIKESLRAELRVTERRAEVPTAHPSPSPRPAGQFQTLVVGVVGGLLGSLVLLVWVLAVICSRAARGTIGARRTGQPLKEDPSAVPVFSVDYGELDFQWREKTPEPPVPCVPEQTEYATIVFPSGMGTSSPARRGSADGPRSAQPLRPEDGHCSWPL

T2: substituted human PD-1, domain #6 replaced with the corresponding amino acid sequence of mouse PD-1 (human; mouse, UniProt Q15116 25-288)
T2 construct: Human limits of domain #6 (109-120) are printed; also called PD-1 if domain #6 is replaced
T2 chain: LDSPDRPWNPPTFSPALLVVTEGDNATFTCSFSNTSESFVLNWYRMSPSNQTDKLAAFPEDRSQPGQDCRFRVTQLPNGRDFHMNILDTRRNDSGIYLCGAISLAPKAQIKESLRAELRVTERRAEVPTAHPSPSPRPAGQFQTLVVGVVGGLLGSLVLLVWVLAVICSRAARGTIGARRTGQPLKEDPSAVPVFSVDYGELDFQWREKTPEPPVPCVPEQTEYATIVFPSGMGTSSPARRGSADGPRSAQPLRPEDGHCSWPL

T3: substituted human PD-1, domain #1 replaced with the corresponding amino acid sequence of mouse PD-1 (human; mouse, UniProt Q15116 25-288)
T3 construct: also called PD-1 when domain #1 is replaced
T3 chain: T1 chain with Y14S, W17L, T19V, S21T, A24D, A105H, Q109K, K111E, L114P, R115G

B1: HM268-J7 (antibody, human IgG1, V domains shown)
VH: QVQLVQSGPEVKKPGASVKVVCKTSGYTFTSYYIQWVRQVPGQGLEWMGWIYFGDASTKYNEKFKGKTTLTADKSTSTAYMELRSLRSDDTAVYYCASYYGSYFDYWGQGTTVTVSS
VL: DIQMTQNTSSLSASVGDRVTITCRASQDISNYLNWYQQKPDGTVKLLIYSTSRLHSGVPSRFSGSGSGTDYTLTISSLEQEDFATYYCQQGSTLPFTFGQGTKLEIK
notes: also called humanized HM268, VH ver.J / VL ver.7
B2: HM268-J8 (antibody, human IgG1, V domains shown)
VH: B1 VH
VL: B1 VL with N7S, T8P, E79Q, Q80P
notes: also called humanized HM268, VH ver.J / VL ver.8
B3: HM268-J9 (antibody, human IgG1, V domains shown)
VH: B1 VH
VL: B1 VL with N7S, T8P, D41G, G42K, T43A, V44P, E79Q, Q80P
notes: also called humanized HM268, VH ver.J / VL ver.9
B4: HM268-K7 (antibody, human IgG1, V domains shown)
VH: B1 VH with V37L, R38K, V40R, M48I, K67R, T68V, L70M
VL: B1 VL
notes: also called humanized HM268, VH ver.K / VL ver.7
B5: HM268-K9 (antibody, human IgG1, V domains shown)
VH: B1 VH with V37L, R38K, V40R, M48I, K67R, T68V, L70M
VL: B1 VL with N7S, T8P, D41G, G42K, T43A, V44P, E79Q, Q80P
notes: also called humanized HM268, VH ver.K / VL ver.9
B6: HM268-L7 (antibody, human IgG1, V domains shown)
VH: B1 VH with K67R, T68V, L70M, K74T
VL: B1 VL
notes: also called humanized HM268, VH ver.L / VL ver.7
B7: HM268-L8 (antibody, human IgG1, V domains shown)
VH: B1 VH with K67R, T68V, L70M, K74T
VL: B1 VL with N7S, T8P, E79Q, Q80P
notes: also called humanized HM268, VH ver.L / VL ver.8
B8: HM268-L9 (antibody, human IgG1, V domains shown)
VH: B1 VH with K67R, T68V, L70M, K74T
VL: B1 VL with N7S, T8P, D41G, G42K, T43A, V44P, E79Q, Q80P
notes: also called humanized HM268, VH ver.L / VL ver.9
B9: HM268-M7 (antibody, human IgG1, V domains shown)
VH: B1 VH with T24A, K67R, T68V, L70M, K74T
VL: B1 VL
notes: also called humanized HM268, VH ver.M / VL ver.7
B10: HM268-M9 (antibody, human IgG1, V domains shown)
VH: B1 VH with T24A, K67R, T68V, L70M, K74T
VL: B1 VL with N7S, T8P, D41G, G42K, T43A, V44P, E79Q, Q80P
notes: also called humanized HM268, VH ver.M / VL ver.9
B11: chimeric HM268-IgG1-K322A (antibody)
heavy: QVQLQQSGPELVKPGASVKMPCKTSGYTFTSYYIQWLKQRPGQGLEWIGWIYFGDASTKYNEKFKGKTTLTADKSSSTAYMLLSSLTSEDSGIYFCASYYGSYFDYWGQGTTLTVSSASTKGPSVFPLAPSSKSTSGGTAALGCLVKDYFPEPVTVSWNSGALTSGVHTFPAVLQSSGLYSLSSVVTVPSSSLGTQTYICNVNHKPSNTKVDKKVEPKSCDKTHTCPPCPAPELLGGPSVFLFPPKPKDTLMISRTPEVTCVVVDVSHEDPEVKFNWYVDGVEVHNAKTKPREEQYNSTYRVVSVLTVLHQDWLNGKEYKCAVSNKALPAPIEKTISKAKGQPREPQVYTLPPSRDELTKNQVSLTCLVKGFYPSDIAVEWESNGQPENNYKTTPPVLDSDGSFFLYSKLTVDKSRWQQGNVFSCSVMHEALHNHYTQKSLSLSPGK
light: NIQMTQNTSSLSATLGVRVTISCRASQDISNYLNWYQQKPDGTVKLLIYSTSRLHSGIPSRFSGSGSGTDYSLTISNLEQEDIATYFCQQGSTLPFTFGGGTKLEIKRTVAAPSVFIFPPSDEQLKSGTASVVCLLNNFYPREAKVQWKVDNALQSGNSQESVTEQDSKDSTYSLSSTLTLSKADYEKHKVYACEVTHQGLSSPVTKSFNRGEC
notes: Mouse Fab region with the Fc region of human IgG1-K322A
B12: humanized HM268-K8-IgG1-K322A (antibody, V domains shown)
VH: B1 VH with V37L, R38K, V40R, M48I, K67R, T68V, L70M
VL: DIQMTQSPSSLSASVGDRVTITCRASQDISNYLNWYQQKPDGTVKLLIYSTSRLHSGVPSRFSGSGSGTDYTLTISSLQPEDFATYYCQQGSTLPFTFGQGTKLEIKR
B13: HM698 (antibody, V domains shown)
VH: EVLLQQSGPELVKPGASVKIPCKASGYTFTDYNMDWVKQSHGKSLEWIGDIDPNNGGTVYNQKFKGKASLTVDKSSSTAYMELRSLTSEDTAVYYCARWRSAMDYWGQGTSVTVSS
VL: DIQMTQTTSSLSASLGDRVTISCRASQDISNYLNWYQQKPDGTVKLLIYYTSRLHSGVPSRFSGSGSGTDYSLTISNLEQEDIATYFCQQYNTLPWTFGGGTKLEIKR
B14: HM647 (antibody, V domains shown)
VH: B13 VH with P21T, G66D, A79G
VL: B13 VL with T7P, Y49S, E81V, N92S, T102S
B15: mouse HM297 (antibody, mouse IgG2a, kappa)
heavy: EVLLQQSGPELVKPGASVKIPCKASGYTFTDYNVDWVRQSHGKSLEWIGDIDPNNGGTIYNQKFKDKATLTVDKSSRTAYMELRSLTSEDTAVYYCARWRGAMDYWGQGTSVTVSSAKTTAPSVYPLAPVCGDTTGSSVTLGCLVKGYFPEPVTLTWNSGSLSSGVHTFPAVLQSDLYTLSSSVTVTSSTWPSQSITCNVAHPASSTKVDKKIEPRGPTIKPCPPCKCPAPNLLGGPSVFIFPPKIKDVLMISLSPIVTCVVVDVSEDDPDVQISWFVNNVEVHTAQTQTHREDYNSTLRVVSALPIQHQDWMSGKEFKCKVNNKDLPAPIERTISKPKGSVRAPQVYVLPPPEEEMTKKQVTLTCMVTDFMPEDIYVEWTNNGKTELNYKNTEPVLDSDGSYFMYSKLRVEKKNWVERNSYSCSVVHEGLHNHHTTKSFSRTPGK
light: DVQMTQTTSSLSASLGDRVTISCRASQDIDNYLKWYQQKPDGTVKLLIYDTSRLHSGVPSRFSGSGSGTDYSLTISNLKQEDIATYFCQQGYTLPWTFGGGTRLEIKRADAAPTVSIFPPSSEQLTSGGASVVCFLNNFYPKDINVKWKIDGSERQNGVLNSWTDQDSKDSTYSMSSTLTLTKDEYERHNSYTCEATHKTSTSPIVKSFNRNEC
notes: Mouse anti-human PD-1 monoclonal antibody (mouse IgG)

Experiments:
[1] = target: human PD-1 (wild-type), expressed on cells (human, UniProt Q15116 25-288); assay: cell-based or functional assay
[2] = target: Human PD-1/PDCD1 Protein (PD-1) (human, UniProt Q15116 25-167, limits assumed); assay: SPR, Biacore 8K; PD-1 captured by anti-His antibody, antibody in flow
Protocol: The binding affinity of each antibody to human PD-1 was measured with Biacore 8K (Cytiva). Briefly, anti-His Tag antibody was immobilized by amine coupling using Amine Coupling Kit and His Capture Kit, onto 8 channels of a sensor chip (provided with 16 flow cells; one channel consisting of two flow cells) which had carboxymethyl dextran immobilized on a gold film. The immobilization was performed by feeding an activation solution (NHS and EDC mixed in equal amounts) at a flow rate of 10 μl/min for 7 minutes, an immobilization solution at a flow rate of 5 μl/min for 7 minutes, and 1 M ethanolamine hydrochloride-NaOH (pH 8.5) at a flow rate of 10 μl/min for 7 minutes. The buffer used at the time of immobilization was 1×HBS-EP+ Buffer. After the immobilization and before applying a sample, Human PD-1/PDCD1 Protein (PD-1) adjusted to 1 μg/ml with 1×HBS-EP+ Buffer was fed to one of the two flow cells of each channel in an amount of 20 μl at a flow rate of 10 μl/min to thereby capture PD-1 on the sensor chip. As regards the other flow cell, 1×HBS-EP+ Buffer was fed in the same manner to prepare a control flow cell. Each antibody was adjusted to 16 nM with 1×HBS-EP+ Buffer, and then subjected to 2-fold 7-step serial dilution using 1×HBS-EP+ Buffer. The resultant sample solution (30 μl) was fed to each flow cell at a flow rate of 10 μl/min and the response was measured. After subtracting the response of control flow cell from the response of the flow cell which was allowed to capture the ligand, KD value was calculated by curve fitting using Biacore 8K Evaluation Software.

[3] = target: T1, substituted human PD-1, domain #7 …; assay: flow cytometry on cells expressing substituted human PD-1
Text: (§1) These sub-groups of antibodies are characterized by a common nature that they bind to domain #6 and domain #7, and are distinguished from known antibodies.
(§2) The gene of human PD-1 (wild-type) or substituted human PD-1 in which regions 1 to 8 as shown in FIG. 2A were replaced with mouse sequences and a gene of fluorescent protein such as GFP were co-expressed in a cell line (such as DO11.10 T cell hybridoma or HEK293T) by means of a vector ligating the genes with IRES sequences. The expression level of PD-1 on this cell line is correlated with the expression level of fluorescent protein such as GFP. Anti-PD-1 antibody was bound to the PD-1/GFP expressing cells, and the bound antibody was detected with a secondary antibody labeled with a different fluorescent dye. Briefly, PD-1-expressing cells were seeded in V-shaped bottom 96-well plates at 1×10⁵ cells/well. To each cell pellet, 50 μl of anti-human PD-1 antibody adjusted to 5 μg/ml was added and mixed. The mixture was incubated at 4° C. for 15 minutes. After washing, BV421-labeled anti-mouse IgG antibody or BV421-labeled anti-human IgG antibody, each adjusted to 5 μg/ml, was added in 50 μl. The mixture was incubated at 4° C. for 15 minutes. After washing, cells were suspended in 200 μl of buffer, and passed through a 70 μm filter. The fluorescence intensity of the filtrate was measured with a flow cytometer. The thus obtained fluorescence intensity can be rephrased as the binding capacity of anti-human PD-1 antibody to human PD-1 (wild-type or substituted). […] Binding characteristics to R143A point mutant or substituted Mouse PD-1 (hu38-48) were also analyzed in the same manner.

[4] = target: T2, substituted human PD-1, domain #6 …; assay: as above
Text: as §1, §2

[5] = target: T3, substituted human PD-1, domain #1 …; assay: as above
Text: as §1, §2

Binder | Cell-cell contact assay [1] | Kd [2] | binding result [3] | binding result [4] | binding result [5]
B1 | 70.9 ng/mL | 4.82 pM | – | – | –
B2 | 63.1 ng/mL | < 2.84 pM | – | – | –
B3 | 301 ng/mL | 25.2 pM | – | – | –
B4 | 43.7 ng/mL | 6.91 pM | – | – | –
B5 | 150 ng/mL | 151 pM | – | – | –
B6 | 103 ng/mL | 2.16 pM | – | – | –
B7 | 98.2 ng/mL | 1.29 pM | – | – | –
B8 | 87.4 ng/mL | 11.1 pM | – | – | –
B9 | 149 ng/mL | 12 pM | – | – | –
B10 | 1430 ng/mL | 61.4 pM | – | – | –
B11 | 46.5 ng/mL | < 1.69 pM | – | – | –
B12 | 39.4 ng/mL | < 3.06 pM | – | – | –
B13 | – | – | no binding (tested: 5 µg/ml) | no binding (tested: 5 µg/ml) | –
B14 | – | – | no binding (tested: 5 µg/ml) | no binding (tested: 5 µg/ml) | –
B15 | – | – | no binding (tested: 5 µg/ml) | no binding (tested: 5 µg/ml) | no binding (tested: 5 µg/ml)
